We go through two molecules from patent US6518063, “Osf2/Cbfa1 nucleic acids and methods of use therefor” (Board of Regents, The University of Texas System).

In series [1] the target is delta.runt.PST + Cbfb heterodimer (UniProt Q08775;Q08024 Q08775:188-607,Q08024:1-187). The series can be described thus: EMSA; supershifted heterodimer complex. The settings on record: tags: 6xHis (pTrcHis); chain copies: 2 (1:1 heterodimer, inferred); label: 32P. An excerpt:
FIG. 18A. The QA domain prevents heterodimerization of Osf2 with Cbfβ. EMSA done with labeled double-stranded OSE2 oligonucleotide, and equivalent amounts of the Histidine-tagged wild-type and mutant proteins, in the presence or absence of Cbfβ. The nonspecific band (NS) is indicated by an arrow. Arrowheads indicate the supershifted complexes seen in lanes 4 and 10.
(§1) 5.6.1.3 Generation of Recombinant Fusion Proteins, DNA-binding Assays, and In Vitro Binding Assays For protein production, bacterial cells were induced with 2 mM IPTG, and the fusion proteins were enriched using Ni-NTA agarose resin (Qiagen Chatsworth, Calif.) as per the manufacturer's guidelines. DNA-binding assays were performed with 5 fmol of ^32P-labeled double-stranded OSE2 oligonucleotides, in a buffer containing 20 mM Tris-HCl, pH 8.0, 10 mM NaCl, 3 mM EGTA, 0.05% NP-40, 5 mM DTT, and 2 μg of poly (dI.dC).poly (dI.dC), with equivalent amounts of wild type or mutant proteins. […] The proteins were checked for purity and quantified before use. ^35S-labeled Osf2 and Cbfa2 were synthesized in rabbit reticulocyte lysate using coupled in vitro transcription and translation (TNT kit, Promega). Typically, 100 ng of fusion protein bound to glutathione-agarose beads was used for each assay, while the amount of labeled protein in the assay was determined using fluorography. […]
On the technique in general: In EMSA bound probe runs differently from free probe, usually more slowly.

Another series concerns the target OSF2/CBFA1a (Homo sapiens, UniProt Q13950 SEQ:1-521). The series can be described thus: cell_activity; p6OSE2-luc, F9 cells. Conditions: tags: pCMV expression. Here is the method:
FIG. 8B. F9 mouse teratocarcinoma cells were transiently transfected with 5 μg of the reporter plasmid in presence of 5 μg of the indicated expression vector. Values are expressed relative to the basal activity of p6OSE2-luc which was set at 1. Data represent results from 3 independent transfection studies.
The mouse F9 teratocarcinoma cell line was used for the DNA transfection studies. The cells were plated on 10-cm dishes at a density of 5×10^5 cells/dish. Cells were transfected by the calcium phosphate coprecipitation method (Chen and Okayama, 1987), using 5 μg of reporter plasmid, 5 μg of expression plasmid and 2 μg of pRSV/βGal as previously described (Geoffroy et al., 1995). The p6OSE2-luc plasmid containing six copies of the wild-type OSE2 oligonucleotide in front of the −34/+13 mOG2 promoter-luciferase (luc) was used as reporter plasmid (Ducy and Karsenty, 1995). The pCMV-hOSF2/CBFA1a and pCMV-hOSF2/CBFA1b were used as expression plasmids. They contain respectively the full length hOSF2/CBFA1a cDNA and the hOSF2/CBFA1b cDNA lacking exon 8 in correct orientation downstream from the CMV promoter. Luciferase and β-galactosidase activities were assayed as previously described (Geoffroy et at, 1995). […]

Series [2] addresses His-Cbfa2 + His-Cbfb heterodimer (UniProt Q03347;Q08024 Q03347:1-451,Q08024:1-187). Briefly: EMSA; slower heterodimer complex. The settings on record: tags: 6xHis on each (pTrcHis); chain copies: 2 (1:1 heterodimer, inferred); label: 32P. Here is the method: as §1
(§2) Since Cbfβ is also expressed in osteoblasts, the inventors tested if Cbfβ was also a partner for Osf2 using an electrophoretic mobility shift assay (EMSA). […] In contrast, when using His-Cbfa2 protein as a positive control, the inventors always detected heterodimerization with Cbfβ, resulting in a protein-DNA complex of slower mobility (FIG. 18A, compare lanes 3 and 4). […]

For series [3], the target named is T1, Osf2/Cbfa1 (Mus musculus, UniProt Q08775 SEQ:1-528). The series can be described thus: cell_activity; p6OSE2-luc (6 copies), F9 cells. The settings on record: tags: pCMV5 expression. Here is the method:
After transfection the cells were washed twice with PBS (150 mM NaCl, 10 mM sodium phosphate [pH 7.2]), and regular medium was added for 24 h. Cells were harvested and lysed by three cycles of freeze-thawing. β-galactosidase activities present in each lysate, measured by a colorimetric enzyme assay (Ausubel et al., 1997) using resorufin β-D-galactopyranoside (Boehringer Mannheim) as a substrate, were used to normalize the transfection efficiency between different studies. DNA cotransfections (Ausubel et al., 1997) were performed in duplicates and repeated at least four times with quantitatively and qualitatively similar results. Luciferase activities were assayed using a Monolight 2010 luminometer (Analytical Luminescence Laboratory, San Diego, Calif.) and D-luciferin substrate (Analytical Luminescence Laboratory) in 100 mM Tris-HCl [pH 7.8], 5 mM ATP, 15 mM MgSO_4, 1 mM dithiothreitol (DTT). For overexpression studies, expression plasmids were transfected for 4 h with Lipofectamin (GIBCO) following the manufacturer's instructions. RNA were harvested 40 h after transfection. […]
The transcriptional activity of Osf2/Cbfa1 was assessed by DNA cotransfection studies. […]

The target in a further series is His-Cbfa2 (Mus musculus, UniProt Q03347 SEQ:1-451). The series can be described thus: EMSA. The settings on record: tags: 6xHis (pTrcHis); label: 32P. Here is the method:
as §1, §2

Series [4] addresses T1, Osf2/Cbfa1. Briefly: cell_activity; p910-Opn-luc promoter fragment, F9 cells; deletion of element abolished. Conditions: tags: pCMV5 expression.

T1 sequence (Q08775 80-607): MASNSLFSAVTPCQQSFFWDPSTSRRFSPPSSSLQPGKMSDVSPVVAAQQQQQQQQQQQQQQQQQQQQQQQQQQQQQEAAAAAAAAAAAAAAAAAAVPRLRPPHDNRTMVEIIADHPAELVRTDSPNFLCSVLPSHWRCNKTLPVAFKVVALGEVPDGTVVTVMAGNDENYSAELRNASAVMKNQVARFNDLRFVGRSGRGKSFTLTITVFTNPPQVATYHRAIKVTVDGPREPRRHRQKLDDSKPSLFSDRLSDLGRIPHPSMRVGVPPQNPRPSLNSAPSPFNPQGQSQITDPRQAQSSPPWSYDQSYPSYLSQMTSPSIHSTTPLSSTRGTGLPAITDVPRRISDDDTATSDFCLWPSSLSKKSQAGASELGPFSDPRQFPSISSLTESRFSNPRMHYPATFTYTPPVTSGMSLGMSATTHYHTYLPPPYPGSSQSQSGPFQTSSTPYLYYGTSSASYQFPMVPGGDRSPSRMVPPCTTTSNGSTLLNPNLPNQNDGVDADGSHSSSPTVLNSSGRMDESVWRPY
Chain of delta.runt.PST + Cbfb heterodimer (Q08775 188-607, stated change not applied, chain 1 of 2): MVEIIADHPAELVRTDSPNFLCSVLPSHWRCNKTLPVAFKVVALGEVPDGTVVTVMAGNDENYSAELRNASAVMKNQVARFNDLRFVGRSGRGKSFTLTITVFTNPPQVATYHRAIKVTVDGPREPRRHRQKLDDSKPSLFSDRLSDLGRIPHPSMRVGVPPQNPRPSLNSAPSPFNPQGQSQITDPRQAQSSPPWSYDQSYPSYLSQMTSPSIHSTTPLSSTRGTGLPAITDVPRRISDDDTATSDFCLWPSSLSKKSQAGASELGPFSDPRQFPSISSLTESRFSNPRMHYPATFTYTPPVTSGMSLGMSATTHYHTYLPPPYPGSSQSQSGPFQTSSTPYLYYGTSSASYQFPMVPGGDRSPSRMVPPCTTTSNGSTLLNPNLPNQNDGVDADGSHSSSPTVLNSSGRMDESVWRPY
Chain of delta.runt.PST + Cbfb heterodimer (Q08024 whole entry, stated change not applied, chain 2 of 2, the tested form may be a part): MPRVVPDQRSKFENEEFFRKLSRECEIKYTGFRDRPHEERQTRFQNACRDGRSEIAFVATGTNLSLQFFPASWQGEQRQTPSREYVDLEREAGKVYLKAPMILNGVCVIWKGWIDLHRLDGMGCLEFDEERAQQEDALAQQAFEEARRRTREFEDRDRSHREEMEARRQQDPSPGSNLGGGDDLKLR
Chain of OSF2/CBFA1a (Q13950 whole entry P266H/R267G): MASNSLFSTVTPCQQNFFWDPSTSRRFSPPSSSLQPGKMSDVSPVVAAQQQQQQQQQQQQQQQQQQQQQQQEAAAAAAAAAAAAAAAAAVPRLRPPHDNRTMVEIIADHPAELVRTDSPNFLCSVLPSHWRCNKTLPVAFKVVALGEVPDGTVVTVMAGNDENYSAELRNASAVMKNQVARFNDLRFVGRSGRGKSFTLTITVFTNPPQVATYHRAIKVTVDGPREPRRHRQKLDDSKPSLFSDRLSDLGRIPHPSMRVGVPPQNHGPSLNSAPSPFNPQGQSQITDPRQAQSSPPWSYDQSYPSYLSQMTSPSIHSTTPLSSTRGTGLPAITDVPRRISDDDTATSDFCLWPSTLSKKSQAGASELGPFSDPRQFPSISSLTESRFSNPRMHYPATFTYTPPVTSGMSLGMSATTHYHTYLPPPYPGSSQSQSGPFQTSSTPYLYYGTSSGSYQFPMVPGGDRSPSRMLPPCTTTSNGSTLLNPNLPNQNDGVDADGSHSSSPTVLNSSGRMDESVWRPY
Chain of His-Cbfa2 + His-Cbfb heterodimer (Q03347 whole entry, chain 1 of 2): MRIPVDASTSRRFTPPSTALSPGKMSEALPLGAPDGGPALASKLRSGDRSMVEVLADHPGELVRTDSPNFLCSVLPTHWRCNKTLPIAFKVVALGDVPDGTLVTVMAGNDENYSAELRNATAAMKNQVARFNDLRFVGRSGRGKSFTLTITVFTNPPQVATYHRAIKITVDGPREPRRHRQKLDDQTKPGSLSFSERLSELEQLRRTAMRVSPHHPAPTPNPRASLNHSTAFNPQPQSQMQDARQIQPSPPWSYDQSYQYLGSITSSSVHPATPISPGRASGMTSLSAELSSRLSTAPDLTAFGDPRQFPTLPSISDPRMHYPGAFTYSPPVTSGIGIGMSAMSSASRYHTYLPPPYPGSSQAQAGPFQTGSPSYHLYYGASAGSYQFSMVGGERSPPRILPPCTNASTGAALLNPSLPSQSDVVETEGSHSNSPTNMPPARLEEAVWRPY
Chain of His-Cbfa2 + His-Cbfb heterodimer (Q08024 whole entry, chain 2 of 2): as the sequence (Q08024 whole entry, stated change not applied, chain 2 of 2, the tested form may be a part) above
Chain of His-Cbfa2 (Q03347 whole entry): as the sequence (Q03347 whole entry, chain 1 of 2) above

B1: Osteocalcin (OG2) OSE2 (dsDNA)
DNA 1: AGCTGCAATCACCAACCACAGCA
DNA 2: TGCTGTGGTTGGTGATTGCAGCT
On to B1, for which the binding result (in series [1]; in series [2]; in the series with His-Cbfa2) was “binds” in each case. The results for the activity with OSF2/CBFA1a and in the series with Osf2/Cbfa1 [3] were 75 fold activation and greater than 70 fold activation, respectively.

B2: Osteopontin OSE2 (dsDNA)
DNA 1: CGCTCTTTGTGCAAACCACACAG
DNA 2: CTGTGTGGTTTGCACAAAGAGCG
With B2, the activity with Osf2/Cbfa1 [4] came to 4 fold activation.
